Measured values: paper PMC2791445, “A Novel Phase Variation Mechanism in the Meningococcus Driven by a Ligand-Responsive Repressor and Differential Spacing of Distal Promoter Elements” (PLoS Pathogens, 2009)

Molecular target: the molecule itself
Assay: cross-linking; in vitro cross-linking of purified NadR, cross-linked species resolved on SDS-PAGE; data not shown

B1: NadR transcriptional regulator protein (NMB1843) of Neisseria meningitidis MC58, recombinant with an N-terminal histidine tag (natural protein)
chain: MPTQSKHASINIGLIQAREALMTQFRPILNQANITDQQWRIIRLLAENGTLDFQDLANQACILRPSLTGILTRLEKAGLVVRLKPSNDQRRVFLKLTAEGEKLYEEIGEEVDERYDAIEEVLGREKMLLLKDLLAELAKIEDALNS
notes: NadR (NMB1843), MarR family transcriptional regulator, N. meningitidis MC58; gene amplified from the MC58 genome with primers 1843-F (at the ATG) and 1843-R (past the stop codon), cloned as a 448 bp NdeI-BamHI fragment into pET15b; also called 1843 protein
- stoichiometry N: 2
